The DeepSol protein solubility set

Test: soluble on expression in E. coli; label from the status in PepcDB or PDB records

Row | Sequence | soluble on expression in E. coli
1 | MNFMEIGTPLFEGAKKLLWLGGGELGKEMVIEAQRMGIETVVVDRYDMAPAMHVAHRKYVVNMLDGNAIKSIIKKENPDAIITEIEAINTDALLELESEGYKVIPNAKAVKICMNRIELRKLAAEKVKVPTTQYGFAENPEEVKKICKDIGYPCIIKPEMSSSGHGHEVVYNESEVEQKFKEAITHARGKSEQVIVEEYVKIDRELTVLTYRYLDDKGVVTKTITPIEHQRPSDVYYYVESWHPSTVDKDIIERAQEYATRVVNELGGFGIFGVEIIVSGNRVLFSEVSPRPHDTGLVTMASLDINEFQIHVRSALGLPTPEVKIVSPAAAHVILANNEGWAPKFLNVEKALQIPGVQIRLFGKPSTYYKRRMGVVLATGNTVEEAKEKARKAASLVLVT | soluble
2 | MGSDKIHHHHHHMSDDTIDRFFGYLNWLFNPFHGLKTTEVYDLIGTSSLTENALYLNLGYWRKADTIDEASEALALLVAKRGGMGPGDIVLDCGYGFGDQDILWARQLKPEKIIGLNITSSQVERARKRVADAGLEQSIDLREGSATAMPIENESIDLVVSVESAFHYRTREAFFREAFRVLRPGGRLVTADIVPTENSGNPFRRMEQWFSWNLVAGKFNIPQENYYLIPSYQNKLTKAGFVQIDIKSIRDDVYEPLHAYLAKNRTFFAKMHPLARIMAQLTLNRSAESVYAGLDYILSYAEKP | not soluble
3 | MGSDKIHHHHHHACEQNEDWVVNEPMQSFEENPEYAPLNTIPDWVSEKVTPKEYELWRTMSSRYEINYSFLKKDISEKRKKEIYDCINNICERIEKGQINKYEGFLNIADEDGTTLSDSQYFGRIATRSPEGGAEYKTNGCTLYTHSLGPYIKAAVTYKKSDDDVTITSSSVYTGSPYLGNDPSFSGASSVSYDKDKKLIAASCSGTLSFKDGSRKVEVTVQKTGFMIP | not soluble
4 | MSLADVQQFPESIAELVPKFHVLKLPMVTRFRSITEREVMLFEGPDGWAEFSPFTEYGSVESSRWLQAALEFAGLLPTAEVEPSAVGSAAETVGQSVAVNATLPACATSEVGPILARYGPVGTVKAKVAEHGIDSLPEDWDRLREFRRLFPETTLRLDANAGYALPEALAACTEFAEFDLQYFEQPVAAVEDMARLREQLSARELPVVLAADESIRKAEDPVRVAELGAAEVVIVKVQPLGGIAAARSVLEACGLPAVVSSALESSVGLAAGAQLAATLPRTQRSRELLGEHPACGLGTGRLFAEDVVEPAQSLRPVDGQIPVTRIVPDPQRLETLAVDPGRFDWWEKRLQECWTALLSRRSEGHHHHHH | not soluble
5 | ADDPIRMYFEPGHYTVMENCGEFEVRVVRRGDISTYASVEYETQDGTASAGTDFVGRKGLLSFPPGVDEQRFRIEVIDDDVFEEDECFYIRLFNPSEGVKLAVPMIATVMILDDDHAGIFAFTDSVFEITESVGRFE | soluble
6 | MANLFRNLFGHKKSHSKGDEDHENMDRDTSRRSIRAAPSSSSRSMARGARFQDDSMLPPTAAYHTQNASARVRRGPKSCPGEYIEEEAPSSSRSFNVDSFRREPRDQRRRSSNMVQSTSKMTSSSSSRAAPRYQQWETSEYGSENTSPIGYHRHYQHRRHHPEEEEDEEEDEEEVYKKSMRYQDLKKKIRAHYEERLFNYERTQRNDHRQIKELEKEKDDLVKMLLQSNAKLDKEKKKTEYFKRKWQEAEHKIPFGNPIMPQFGFPPATPQFPQMFQFQPNSGGSAQRYSFMGAPMHPISSSNTPTTSGMDTTHGGAGESLVPASDVSYLAPLVPAPPTLPLLELNTSQGPSTSGISQQNPQQSSSSFFHDDDEDQDETKNFRDEEIESPRCHGSTSTLKNDEEAAELSDFLSKSNLTTLEEGKDSGFSTTPDDAKEPEKVAAN | not soluble
7 | MGSDKIHHHHHHMRFPMMELDEKIYRFFENRGRDVTVEYLNLGLGYTAVTTSDGGIGIAYTCFGAKESCSFMNSYYDFEGRPAVELLEKIKSTHPLERTMALALVNALNYEYALSLPEDKENRALFESFGIGEKTRVAMVGYFAPIAGMLGKMGALLEVIDISKKIGHQADFYDRLENWAQVAFITSTSILNSTTEDILRHAGKGVKTVMLGPSTPMIGEVFSHLPVHMLAGTVPLEKEKVLKAIRHGFGTREIQRFSRKSYLALF | not soluble
8 | MATQQPALVLDPTGADHHTEHRTLREGGPATWVDVLGVQAWSVSDPVLLKQLLTSSDVSKDARAHWPAFGEVVGTWPLALWVAVENMFTAYGPNHRKLRRLVAPAFSARRVDAMRPAVEAMVTGLVDRLAELPAGEPVDLRQELAYPLPIAVIGHLMGVPQDRRDGFRALVDGVFDTTLDQAEAQANTARLYEVLDQLIAAKRATPGDDMTSLLIAARDDEGDGDRLSPEELRDTLLLMISAGYETTVNVIDQAVHTLLTRPDQLALVRKGEVTWADVVEETLRHEPAVKHLPLRYAVTDIALPDGRTIARGEPILASYAAANRHPDWHEDADTFDATRTVKEHLAFGHGVHFCLGAPLARMEVTLALESLFGRFPDLRLADPAEELPPVPSLISNGHQRLPVLLHAG | soluble
9 | MGSDKIHHHHHHMRPKILFVVNVDWFFVSHRLPIAVAAQNVGYDVHIACQVTDKKQELEGYGFTVHSISLDRSGTSVLKEFQTMLSIYRLIKKISPALMHMITVKPVIYAGIAARILGVSKVASISGLGFIFIAEGFKSKLLKSLITILYKLALNDGKSRVIFQNDSDKGLFIRRGIISDSNTLLVRGSGVDLDKYQVKPEPESYPVIVLLARLLIDKGVLEFVQAAEILKSKGVPCKMVLAGDTDENPKSVSKNQITDWVNKGIVEYWGYSKDVNSTYANCHIAVLPSYREGLPKSLIEAAACGRAVITTDVPGCRDAITPNKTGLLVPVKSSLELALAIETLCNDSKLRQSLGQEGRQLAEQAFDIKSVIQIHLNLYADLLKGKPSV | not soluble
10 | MGSDKIHHHHHHMINRELYMEQITPFIDKPFVKVITGIRRCGKSVVLRLIREELLRRGVSEDYIIYMNFESFEWIDMKEAKALYAHIREATKASGKYYILLDEIQEVTDWEKAVNAFLVDLDVDIYVTGSNSRLLSSEFSTYLAGRYVAFHIMTLSFREYLLFHDLPLTISVSDRKTEFLKYLRMGGFPAIHTANYDYNAIYKIVYDIYSSVILRDTVQRHSIRNVEMLERVVKFVFDNIGNKLNAKNIADYFKSQQRKVDINTIYNYLNALDSAFVIQRIPRYDIKGKEILQTNEKYFVSDLSLIYSVMGYRDRLIGGMLENLVCMELKRRGYEVYVGKQDEKEVDFVAIRREEKIYVQVTYQLGLQATIDREFAPLLAIDDHYPKYVVSMDDLWQDNIEGVKHRHIADFLLDEW | not soluble
11 | MIISAEGDVSIHHCFEAMLISLQEDYRQNTLRQLSRDDIKAGINYVKHYGKYKERTVRVLITALEAPQLYTACFSSNHGIKELAYQLEALGENRTRITYSYDYHPLDIFQKANQFIVGKLFKKSLERQSQAQLAALIQYAKQLQQPSSL | not soluble
12 | MKTSKFTEAQIAFALKQAELGTKVEEVCRKLGISEATFYNWKKKYGGVGPSELRRMRQLEEENTKLKRLVADLSLDKAMLQDVLSKKLAAALEHHHHHH | not soluble
13 | MVLRRDFLTWCNETLQTALFKDYAPNGLQVEGREYIGKIVTSVTASRAAIDFAVEQKADLLLVHHGMFWKNELPTVTGWKKERIAALLRHDINMAGYHLPLDAHPTLGNNAQLADRLGFATEKRFGEQNLLNSGSLKQAKTLGALAAHIETVLQRKPVVIGKPEREIRRVAWCSGGAQGFFQTAIDEGVDLYLTGEISEAQYHLANETGTAFISAGHHATERYGVRALAESAAEVFGLEVCHFDENNPALEHHHHHH | soluble
14 | MSLIGKHFIITGATSGLGFAITNELLQRGAHVTILARNIDKFNRIKENYFKPEHINVIKCDLMQRKDIESLQKFLNTPINGFIYSSGVGYFKSISEHSTREVVETYEVNLTNFNLLYKVIQPQLVKAAYIVGISSQAALVSQANAAHYGASKAGFSAVLNALRLEQPELKVLNVQPGPIDTPFQKNADPTLKYFKNYRHMMIQPQQLAKQIVEGIILNKIEINQPSWMQEGHHHHHH | not soluble
15 | MSLKIAITGASGFVGSHLSSQFGGSHTLLPLGRRELSDPTKLSSLLEGVDWIINLAGAPIIAKWSESYKKVLYSSRIETTRSLLLALKECPTKPSLFTSTSAIGIYDNQGTYAEGDLALAQDFLGKLAKDWEEEALKAQDLGIRTVVFRFGVVLGKGGGMMEKLRLPFSLGLGGVIGDGKQKFSWIHLHDIAKAMEFAWSTPSLSGIYNLTAPSPTTNEAFTKLYGSLIHRPTLLPVPLWALQILFGEGAKVLSDGQAAIPERLLQAGFEFEYPTLEKALKEIISEGHHHHHH | soluble
16 | MSYDYIVSQYLAYIKDITLEGCKAEEIFDYFKDKLNIVSKEGCDKPYIKVYKNNRLYFSYYGIPAINEFWPFLNALVRISNNVIQLDEKEKELAANIRGNIKLFVTPDCTKCPIAAELLYQLPILNSNISLEIIDVTTYDDLGKKHRVLNVPKIVLNEKTEIPGSFPPTIILKMLAKGSEQH | soluble
17 | GPGSMKATIITPGETYRILAPASSLHKYLTDSYWCSAMEEVCEGKLDGVAVRYTGQQLVLLQFRPKQLSPAGYRYPISMSIPVEYLVPISTEESTEDHNICKHDTNYGTKESTFLGSGFAPLCVVCGRYNVPGMVLRHHGYKCPECVGHKSTRKLRMEGARRR | not soluble
18 | VAAALGVKPPETATTPEIVVGRPPELCKGCGHRDMFDAINIAIKENADHHVFSDIGCYTLGALPPYNAIHTCVDMGAAITMAKGAADAGLRPAVCVIGDSTFAHSGMTGLLDAVNDRTPVTVIIADNNTTAMTGGQCSSASGSKLVNICIGLGVEEAHIRTIVPLRQHLHENVSVLRDEFAYNGVSVVIAQRECIETAAKKKRRAAASAQ | not soluble
19 | AIARGHGTYMDEDRLTASVAGQVERVNKLICVKPLKTRYNGEVGDVVVGRITEVQQKRWKVETNSRLDSVLLLSAVNLPGGELRRRSTQDELAMRDYLQEGDLISAEVQSIFSDGALSLHTRSLKYGKLGQGVLVYVSPSLVKRQKTHFHNLPCGASLILGNNGYVWLSPTPALQEEQAGGFYTSMEPVSLSDREVVSRLRNCLLALANQKVLLFDTSVLYCYEASLQHQIKDILKPEIMEEIVLETRQRLMEHEG | soluble
20 | RKYAFEDVFRVGREDVNEMADRILNSLSSYKPRVGCIAFSGGVDSSLLAALYDAPLVSVTASDAEEEWLKTAARMLGKEIEILKVGESAIREVVDTVRKTIETGDFLQLSIAVPVYLTMQFAKSLGFTEIIFGQGADELFGGYKRYEGLSEHELEDALVKDLKSIGESNLVRDCKLAYKNEIKLVTPYLCWDVIDAALKIPPEYKVRREGGKVVRKYILRKIAEKFLPEEIAWRDKKAIQYSTGIAKI | not soluble
21 | QVQLKESGPGLVAPSQSLSITCTVSGFSLTDYGVDWVRQPPGKGLEWLGMIWGDGSTDYNSALKSRLSITKDNSKSQVFLKMNSLQTDDTARYYCVRDPADYGNYDYALDYWGQGTSVTVSSAKTTPPSVYPLAPGSAAQTNSMVTLGCLVKGYFPEPVTVTWNSGSLSSGVHTFPAVLQSDLYTLSSSVTVPSSTWPSETVTCNVAHPASSTKVDKKIVPRDCG | soluble
22 | MSLDSKLIFFDIDGTIYDHDKNIPESTRKTVAELQRQGHHVFIASGRSPFLVKPILEELGIHSFISYNGQFVVFENQVIYKNPLPENAIRRLLKQADEGKHPVVFMAEDTMKATVADHPHVLEGIGSLKTDYPETDDLFYEGKEIFQLLLFCQDEEEKAYAAFPEFDLVRWHELSTDVLPHGGSKAEGIKKVIERLPFDIGDTYAFGDGLNDLQMIEYVGTGVAMGNAVPELKEIADFVTKPVDEDGIAYAVKELGLLKEGHHHHHH | soluble
23 | MNALEPLFARLARSTFRSRFRLGIKERQYCWDKGAEVIDKHAADFIAQRLAPAHPANDGKQTPMRGHPVFIAQHATATCCRGCLAKWHQIPQGEPLSEAQQQYIVSVIHYWLVIQMNQR | not soluble
